From patent publication US9580469B2, “Peptides for the treatment and early diagnosis of Alzheimer's disease and other tauopathies” (priority 2012, dated 2017) come the findings set out here.

Common to all, as to type: biochemical
One experiment deals with T1, tau full-length protein (Homo sapiens, UniProt P10636).
T1 construct: Since this is not possible for the full-length tau protein (441 amino acids)
As to the kind of experiment: Dynamic light scattering (DLS) measurements of tau aggregation with arachidonic acid. The settings on record: for Mass Day 1 / Mass Day 8 / Particle size Day 1 / Particle size Day 8: DLS, 1 μg/ml tau full-length protein, 100 μM arachidonic acid (AA), peptide at ratio 1:10; for Effect on aggregation of tau in DLS (in words): tau full-length protein, 100 μM arachidonic acid, peptide ratio 1:10. How it is done:
For this purpose. 1 μg/ml tau full-length protein was analyzed using 100 μM arachidonic acid and the respective peptide at a ratio of 1:10. Tau without peptide and without the addition of arachidonic acid was measured for control purposes. […] DLS was carried out with an acquisition time of 5 seconds for 3 minutes at room temperature.

The next experiment concerns the target tau fibrils (Homo sapiens, UniProt P10636). As to the kind of experiment: Effect of peptides on existing tau fibrils.
The next experiment concerns the target PHF-6 (Homo sapiens, UniProt P10636). Kind of experiment: ThT aggregation assay of PHF-6 (relative fibril content). The settings on record: 25 μM PHF-6, PHF-6:peptide 1:1 and 1:10, two hours of incubation. As for the experimental part:
(§1) In mirror image phage display selections, the selection rounds are carried out against a D-enantiomer as the target, which must be generated synthetically. Since this is not possible for the full-length tau protein (441 amino acids), the selections were carried out against the D-enantiomer of a 6-mer tau fragment (PHF-6), which can be found in tau repeats R2 and R3 and, according to various studies, forms the core of the neurofibrillary tangles (von Bergen, M., Assembly of τ protein into Alzheimer paired helical filaments depends on a local sequence motif (306VQIVYK311) forming β structure PNAS, 1999. 97(10): p. 5129-5134; Miller, M., Synergistic Interactions between Repeats in Tau Protein and Aβ Amyloids May Be Responsible for Accelerated Aggregation via Polymorphic States. 5172-5181, 2011. 50(23): p. 5172-5181). […]
The concentration of PHF-6 was 25 μM; the peptides were measured at a ratio of 1:1 and 1:10 (PHF-6:peptide) and as controls individually in a 25 μM concentration (not shown). The fluorescence of 25 μM PHF-6 after two hours of incubation was set at 100%, and the values and standard deviations of the remaining incubations are indicated as percentages of this maximal value.

The next experiment addresses full-length tau protein (Homo sapiens, UniProt P10636). As to the kind of experiment: ThT aggregation assay of tau with 100 μM arachidonic acid (relative fibril content). The settings on record: 5 μM tau, tau:peptide 1:1 and 1:10, 24 hours. How it is done: as §1, with “5172-5181). Since aggregated material is to serve as the target for the selection, and monomeric tau protein has important physiological functions and must not be inhibited in vivo, only fribriilary material was used for the selection.” for “5172-5181).”
The concentration of tau was 5 μM; the peptides were added at a ratio of 1:1 and 1:10 (tau:peptide). The fluorescence of 5 μM tau after 24 hours of incubation was set at 100%, and the values and standard deviations of the remaining incubations are indicated as percentages of this maximal value.

Where no end group is shown, it is not given here. [ ]: non-standard residue; d: D form.

Chain of tau fibrils (P10636 1-441 isoform P10636-8): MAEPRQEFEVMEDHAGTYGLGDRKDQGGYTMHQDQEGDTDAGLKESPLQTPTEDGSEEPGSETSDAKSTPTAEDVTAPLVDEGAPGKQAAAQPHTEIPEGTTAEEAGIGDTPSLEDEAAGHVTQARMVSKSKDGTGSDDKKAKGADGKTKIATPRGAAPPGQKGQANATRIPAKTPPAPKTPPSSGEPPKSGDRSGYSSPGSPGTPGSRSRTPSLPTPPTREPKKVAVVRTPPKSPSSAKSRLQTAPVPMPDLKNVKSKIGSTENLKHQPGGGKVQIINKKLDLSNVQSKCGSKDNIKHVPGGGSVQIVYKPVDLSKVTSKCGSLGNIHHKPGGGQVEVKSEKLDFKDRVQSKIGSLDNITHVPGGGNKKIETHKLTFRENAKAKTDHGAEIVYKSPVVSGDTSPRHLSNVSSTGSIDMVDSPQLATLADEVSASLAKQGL
T1 sequence (P10636 1-441 isoform P10636-8): as above
Chain of full-length tau protein (P10636 1-441 isoform P10636-8): as above

In the case of “TTSLQMRLYYPP (not fully specified (some residues)) [TL28, label not defined in the text]”, in the experiment with tau full-length protein, the “Mass Day 1” value was “≧99%” and the “Mass Day 8” value is recorded as 100%.

With aptilrlhslga, in the experiment with tau full-length protein, the “Mass Day 1” value is on record as “≧99%”, the “Particle size Day 1” value is 1-fold, the “Mass Day 8” value is on record as “≧98%” and the “Particle size Day 8” value is given as 1-fold. Besides, in the experiment with tau fibrils, the “Effect on existing tau fibrils” value is “dissolve existing tau fibrils”.

In the case of “kntpqhrklrls ([dK][dN][dT][dP][dQ][dH][dR][dK][dL][dR][dL][dS]) [D-peptide from selections against D-PHF-6]”, in the experiment with tau full-length protein, the “Mass Day 1” value is recorded as “≧99%”, the “Particle size Day 1” value was 1-fold, the “Mass Day 8” value is listed as “≧99%” and the “Particle size Day 8” value is recorded as 1-fold. Moreover, the “Effect on existing tau fibrils” value with tau fibrils is reported as “dissolve existing tau fibrils”.

Take “ppyylxmqlstt ([dP][dP][dY][dY][dL][dR][dM][dQ][dL][dS][dT][dT]) [TD28ri, retro-inverso peptide of …]”: in the experiment with tau full-length protein, the “Mass Day 1” value is on record as 100%, the “Particle size Day 1” value was 55-fold, the “Mass Day 8” value came to 100% and the “Particle size Day 8” value is recorded as 44-fold. For the same substance, in the experiment with tau full-length protein, the “Effect on aggregation of tau in DLS (in words)” value (“Effect on aggregation of tau” below) is recorded as “formation of very large aggregates”. In addition, the “Effect on existing tau fibrils” value with tau fibrils is “convert tau fibrils into large amorphous aggregates”.

As for “tlkivw ([dT][dL][dK][dI][dV][dW]) [Sievers, reference compound]”, the “Inhibition of aggregation / fibril formation of PHF-6” value in the experiment with PHF-6 was “inhibited the aggregation of PHF-6 to a similar degree as that of the peptides we developed”. Besides, in the experiment with tau full-length protein, the “Mass Day 1” value stood at 100%, the “Mass Day 8” value is on record as “≧98%” and the “Effect on aggregation of tau” value is on record as “showed no effect on the aggregation of the full-length tau protein”. The “Inhibition of fibrillization / aggregation of the full-length tau protein” value in the experiment with full-length tau protein is “not the aggregation of the full-length tau protein”. The “Inhibition of fibrillization / aggregation of the full-length tau protein” value in the experiment with full-length tau protein (listed as peptide selected by Sievers) is reported as “in most approaches showed no effect at all”.

As for “ttslqmrlyypp ([dT][dT][dS][dL][dQ][dM][dR][dL][dY][dY][dP][dP]) [TD28]”, in the experiment with tau full-length protein, the “Mass Day 1” value is recorded as 100%, the “Particle size Day 1” value is listed as 42-fold, the “Mass Day 8” value is 100% and the “Particle size Day 8” value was 48-fold. Besides, in the experiment with tau full-length protein, the “Effect on aggregation of tau” value is given as “formation of very large aggregates”. Further, the “Effect on existing tau fibrils” value in the experiment with tau fibrils was “convert tau fibrils into large amorphous aggregates”.
